# Target: MG1113, IgG4 monoclonal anti-tissue factor pathway inhibitor (TFPI) antibody
# Experiment: SPR
substance,measurement,value
TFPI-α (tissue factor pathway inhibitor alpha) (from UniProt P10646-1 29-304) (natural protein),Kd,0.0467 nM
same,koff,0.000131 s⁻¹
same,kon,2.82e+06 M⁻¹ s⁻¹

# From PMC7695563
